Source: US7524668

Molecular target: recombinant soluble human beta-secretase from CHO-K1 cells (Hu_Asp-2LdeltaTM(His)6) (UniProt P56817)
Sequence (P56817 other isoform, or with tags, fused parts or gaps mutant): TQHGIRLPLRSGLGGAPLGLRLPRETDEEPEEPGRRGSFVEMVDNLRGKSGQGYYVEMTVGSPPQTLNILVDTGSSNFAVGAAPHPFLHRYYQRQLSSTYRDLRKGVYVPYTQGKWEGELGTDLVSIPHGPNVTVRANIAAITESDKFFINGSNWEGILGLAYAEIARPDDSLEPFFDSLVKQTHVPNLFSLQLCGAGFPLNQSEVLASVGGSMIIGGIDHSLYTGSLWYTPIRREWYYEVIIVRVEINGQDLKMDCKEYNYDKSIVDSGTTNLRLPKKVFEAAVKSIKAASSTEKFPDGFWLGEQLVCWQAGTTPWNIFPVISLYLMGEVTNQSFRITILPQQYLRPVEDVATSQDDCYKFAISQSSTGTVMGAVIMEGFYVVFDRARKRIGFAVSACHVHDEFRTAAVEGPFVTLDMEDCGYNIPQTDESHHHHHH

Q: Which “cleavage of the F39-V40 bond (N-terminal sequence after incubation; pH 5.7, 0.5 M urea, 5% HIV protease, 1 hour at 37 C)” value does the source give for HIV-1 protease here?
A: nearly 100% cleavage of the F^39-V^40 bond occurred
